Here are results for two molecules from article doi:10.1101/258194 (bioRxiv, 2018).

In test [1] the target is T1, Zip2^499-704 (XPF-like region), recombinant, co-expressed with His6-Spo16 (S. cerevisiae, UniProt P53061 499-704).
T1 sequence: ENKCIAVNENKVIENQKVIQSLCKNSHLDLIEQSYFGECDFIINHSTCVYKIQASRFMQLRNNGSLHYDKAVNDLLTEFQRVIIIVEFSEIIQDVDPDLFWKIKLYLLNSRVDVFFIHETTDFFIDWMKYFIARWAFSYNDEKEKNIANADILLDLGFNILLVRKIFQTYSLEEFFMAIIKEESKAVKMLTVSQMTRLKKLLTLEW
The experiment in a line: SEC-MALS. A general note: In gel filtration, larger molecules generally elute earlier.

In test [2] the target is T2, Zip2^499-704, surface-lysine methylated (Form 1 crystals) (S. cerevisiae, UniProt P53061 499-704).
T2 sequence: T1 sequence
The experiment in a line: crystal structure.

B1: His6-Spo16 (full-length Spo16 with TEV-cleavable N-terminal His6-tag), recombinant (natural protein)
chain: SEFFWDVQKIQEISNVEEHSVVKCVTVNTSRLISQLNEELQDEESGVNFIVTQLQLLINNVYEKIQKSPGVPAHRSLMINLNFTRLKFSIAYWDILLERSLDLINGPSKTGARYFITEVTPVDRSRYVENNQYFLAFKANQRLTRNSVDMDEFIDFEILIKQIIFDLFKKNGIPDQDFEAILSRFHNLESLVVAFNE
B1: the stoichiometry N (commonly the number of molecules, sites or subunits per partner or assembly) in test [1] is 1.

B2: His6-Spo16, surface-lysine methylated (Form 1 crystals) (natural protein)
chain: B1 chain
modifications: surface lysines dimethylated (positions not listed)
For the molecule B2, in test [2], the binding result is on record as “binds”.
